# Test results reported in PMC11092803, “Heme allocation in eukaryotic cells relies on mitochondrial heme export through FLVCR1b to cytosolic GAPDH” (Research Square, 2024).
# T1: Feline Leukemia Virus subgroup C Receptor 1b (FLVCR1b) (human (endogenous in HEK293T), UniProt Q9Y5Y0-2 1-279)
# T1 construct: FLVCR1 isoform b, the mitochondrially targeted version of FLVCR1a that is missing the first six transmembrane helices; endogenous in human HEK293T cells, detected or precipitated with an anti-FLVCR antibody (Novus NB100-1481); The antibody is named as against human FLVCR / FLVCR1; also called Feline leukemia virus subgroup C receptor 1 isoform b; source: endogenous, HEK293T cells; endogenous, …
# T1 sequence (looked up): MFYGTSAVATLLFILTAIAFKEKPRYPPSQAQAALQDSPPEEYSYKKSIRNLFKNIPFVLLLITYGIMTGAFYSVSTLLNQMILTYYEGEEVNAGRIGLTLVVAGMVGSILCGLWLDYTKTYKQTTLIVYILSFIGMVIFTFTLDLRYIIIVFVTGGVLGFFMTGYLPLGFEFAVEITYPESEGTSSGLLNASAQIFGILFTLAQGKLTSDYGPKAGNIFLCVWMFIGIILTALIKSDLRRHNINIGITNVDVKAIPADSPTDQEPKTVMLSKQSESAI
# T2: FLVCR1b in isolated mouse mitochondria (mouse (endogenous in brain and liver …, UniProt B2RXV4-2 1-279))
# T2 construct: Detected with the antibody named as against FLVCR1 (Novus NB100-1481); also called mitochondrial FLVCR1b; source: endogenous, mitochondria isolated from mouse brain and liver
# T2 sequence (looked up): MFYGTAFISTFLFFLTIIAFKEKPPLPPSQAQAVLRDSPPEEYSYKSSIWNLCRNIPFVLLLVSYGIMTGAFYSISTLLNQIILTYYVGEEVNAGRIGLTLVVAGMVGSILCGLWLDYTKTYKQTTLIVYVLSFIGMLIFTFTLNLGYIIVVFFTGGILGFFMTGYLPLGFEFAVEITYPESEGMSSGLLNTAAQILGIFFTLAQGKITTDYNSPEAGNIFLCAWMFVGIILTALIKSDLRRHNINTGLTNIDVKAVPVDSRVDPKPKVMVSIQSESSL
# B1: H53A point mutant variant of HA-hGAPDH (natural protein)
# chain: not shown
# notes: human GAPDH with H53A, expressed from the H53A variant of pRK5-TC-hGAPDH-HA; also called H53A HA-GAPDH; HA-H53A; source: HEK293T, transfected (H53A variant of pRK5-TC-hGAPDH-HA), in cells; in solubilised mitochondria
# B2: Transport and Golgi Organization 2 (TANGO2) protein (natural protein, human (endogenous in HEK293T), UniProt Q6ICL3 1-276, looked up)
# chain: MCIIFFKFDPRPVSKNAYRLILAANRDEFYSRPSKLADFWGNNNEILSGLDMEEGKEGGTWLGISTRGKLAALTNYLQPQLDWQARGRGELVTHFLTTDVDSLSYLKKVSMEGHLYNGFNLIAADLSTAKGDVICYYGNRGEPDPIVLTPGTYGLSNALLETPWRKLCFGKQLFLEAVERSQALPKDVLIASLLDVLNNEEAQLPDPAIEDQGGEYVQPMLSKYAAVCVRCPGYGTRTNTIILVDADGHVTFTERSMMDKDLSHWETRTYEFTLQS
# notes: TANGO2, endogenous in human HEK293T cells, detected with an anti-TANGO2 antibody (Invitrogen PA5-51818); also called Transport and Golgi organization 2 homolog; T2; source: endogenous, HEK293T cells
# B3: glyceraldehyde phosphate dehydrogenase (GAPDH) (natural protein)
# chain: not shown
# notes: Glyceraldehyde 3-phosphate dehydrogenase, endogenous in the human HEK293T cell line, detected with an anti-GAPDH antibody; In the experiments on isolated mouse mitochondria the GAPDH came with HEK293T cytosol, but mouse GAPDH that stayed on the mitochondria cannot be ruled out; also called Glyceraldehyde 3-phosphate dehydrogenase; source: endogenous, HEK293T cells; endogenous, solubilised HEK293T …
# Key:
# Settings in all cases: partners not purified
# [1] = target: T1, Feline Leukemia Virus subgroup C …; assay: proximity ligation; Duolink PLA on HEK293T cells transfected with HA-tagged GAPDH wild type or H53A, antibodies to HA and FLVCR1; resting and at times after δ-ALA/Fe; background = one primary antibody alone
# [2] = target: B3; assay: proximity ligation; Duolink PLA on fixed, permeabilised heme-depleted HEK293T cells, pairs of primary antibodies to the endogenous proteins; 0, 15, 30, 45, 60 and 120 min after δ-ALA (1 mM) and ferric citrate (100 μM); also in cells with control siRNA or knock-down of TANGO2 or GAPDH; background = one primary antibody alone, set to 1.0
# [3] = target: T1, Feline Leukemia Virus subgroup C …; assay: as above
# [4] = target: T2, FLVCR1b in isolated mouse mitochondria; assay: proximity ligation; Duolink PLA on mitochondria from mouse brain and liver, before or after incubation with δ-ALA and mitochondria-free HEK293T cytosol (control or TANGO2 knock-down cells) at 37 °C, reisolated and placed on poly-D-lysine coverslips
"PLA signal over background, resting cells [1]",PLA signal over background [2],"PLA signal over background, resting cells [3]",fold increase of PLA signal 30 min after δ-ALA/Fe [3],fold increase of PLA signal after 30 min with δ-ALA and cytosol [4],Binder
~2 fold over background,–,–,–,–,B1
–,2.5 fold over background,5 fold over background,–,–,B2
–,–,2.5 fold over background,18 fold,4 fold,B3
